From PMC7212365

Key:
[1] = biological target: HER2 binding monomeric IgA2m(2) produced in N. benthamiana ΔXT/FT plants (human); assay: SPR; Biacore T200; IgA variants immobilised on a Protein L sensor chip with the Fc-domain pointing toward the solution; five increasing concentrations of FcαRI injected in single-cycle kinetic experiments; 1:1 binding model; three independent kinetic runs
[2] = biological target: HER2 binding dimeric IgA1 produced in HEK293F cells (human) (UniProt P01591); assay: as above
[3] = biological target: HER2 binding dimeric IgA1 produced in N. benthamiana ΔXT/FT plants (human) (UniProt P01591); assay: as above
[4] = biological target: HER2 binding monomeric IgA1 produced in N. benthamiana ΔXT/FT plants (human); assay: as above
[5] = biological target: HER2 binding dimeric IgA2m(2) produced in N. benthamiana ΔXT/FT plants (human) (UniProt P01591); assay: as above
[6] = biological target: HER2 binding monomeric IgA1 produced in HEK293F cells (human); assay: as above
[7] = biological target: HER2 binding dimeric IgA2m(2) produced in HEK293F cells (human) (UniProt P01591); assay: as above
[8] = biological target: HER2 binding monomeric IgA2m(2) produced in HEK293F cells (human); assay: as above
[9] = biological target: Dimeric HER2 binding IgA2m(2) produced in HEK293F cells (human) (UniProt P01591); assay: SPR; Biacore T200; IgA variants immobilized on a Protein L sensor chip; five increasing concentrations of FcαRI injected in single-cycle kinetic experiments; 1:1 binding model; three independent kinetic runs
[10] = biological target: Dimeric HER2 binding IgA1 produced in HEK293F cells (human) (UniProt P01591); assay: as above
[11] = biological target: Monomeric HER2 binding IgA1 produced in HEK293F cells (human); assay: as above
[12] = biological target: Dimeric HER2 binding IgA2m(2) produced in N. benthamiana ΔXT/FT (human) (UniProt P01591); assay: as above
[13] = biological target: Monomeric HER2 binding IgA2m(2) produced in N. benthamiana ΔXT/FT (human); assay: as above
[14] = biological target: Dimeric HER2 binding IgA1 produced in N. benthamiana ΔXT/FT (human) (UniProt P01591); assay: as above
[15] = biological target: Monomeric HER2 binding IgA1 produced in N. benthamiana ΔXT/FT (human); assay: as above
[16] = biological target: Monomeric HER2 binding IgA2m(2) produced in HEK293F cells (human); assay: as above

- Kd [1]: 170 nM
- stoichiometry N [1]: 1
- stoichiometry N [2]: 1
- stoichiometry N [3]: 1
- Kd [4]: 110 nM
- stoichiometry N [4]: 1
- stoichiometry N [5]: 1
- Kd [6]: 110 nM
- stoichiometry N [6]: 1
- stoichiometry N [7]: 1
- Kd [8]: 170 nM
- stoichiometry N [8]: 1
- Kd [9]: 182 nM
- koff [9]: 0.049 s⁻¹
- kon [9]: 260000 M⁻¹ s⁻¹
- Kd [10]: 144 nM
- koff [10]: 0.055 s⁻¹
- kon [10]: 360000 M⁻¹ s⁻¹
- Kd [11]: 109 nM
- koff [11]: 0.05 s⁻¹
- kon [11]: 440000 M⁻¹ s⁻¹
- Kd [12]: 226 nM
- koff [12]: 0.049 s⁻¹
- kon [12]: 270000 M⁻¹ s⁻¹
- Kd [13]: 160 nM
- koff [13]: 0.055 s⁻¹
- kon [13]: 340000 M⁻¹ s⁻¹
- Kd [14]: 151 nM
- koff [14]: 0.057 s⁻¹
- kon [14]: 370000 M⁻¹ s⁻¹
- Kd [15]: 103 nM
- koff [15]: 0.061 s⁻¹
- kon [15]: 580000 M⁻¹ s⁻¹
- Kd [16]: 157 nM
- koff [16]: 0.05 s⁻¹
- kon [16]: 310000 M⁻¹ s⁻¹
Substance: Recombinant soluble FcαRI (from UniProt P24071 22-227) (receptor)
